Results reported in publication PMC8776769, “Structure and mechanism of the RNA dependent RNase Cas13a from Rhodobacter capsulatus”.

Target: T1, RcCas13a (Rhodobacter capsulatus, UniProt D5AUW0 1-1285)
T1 sequence: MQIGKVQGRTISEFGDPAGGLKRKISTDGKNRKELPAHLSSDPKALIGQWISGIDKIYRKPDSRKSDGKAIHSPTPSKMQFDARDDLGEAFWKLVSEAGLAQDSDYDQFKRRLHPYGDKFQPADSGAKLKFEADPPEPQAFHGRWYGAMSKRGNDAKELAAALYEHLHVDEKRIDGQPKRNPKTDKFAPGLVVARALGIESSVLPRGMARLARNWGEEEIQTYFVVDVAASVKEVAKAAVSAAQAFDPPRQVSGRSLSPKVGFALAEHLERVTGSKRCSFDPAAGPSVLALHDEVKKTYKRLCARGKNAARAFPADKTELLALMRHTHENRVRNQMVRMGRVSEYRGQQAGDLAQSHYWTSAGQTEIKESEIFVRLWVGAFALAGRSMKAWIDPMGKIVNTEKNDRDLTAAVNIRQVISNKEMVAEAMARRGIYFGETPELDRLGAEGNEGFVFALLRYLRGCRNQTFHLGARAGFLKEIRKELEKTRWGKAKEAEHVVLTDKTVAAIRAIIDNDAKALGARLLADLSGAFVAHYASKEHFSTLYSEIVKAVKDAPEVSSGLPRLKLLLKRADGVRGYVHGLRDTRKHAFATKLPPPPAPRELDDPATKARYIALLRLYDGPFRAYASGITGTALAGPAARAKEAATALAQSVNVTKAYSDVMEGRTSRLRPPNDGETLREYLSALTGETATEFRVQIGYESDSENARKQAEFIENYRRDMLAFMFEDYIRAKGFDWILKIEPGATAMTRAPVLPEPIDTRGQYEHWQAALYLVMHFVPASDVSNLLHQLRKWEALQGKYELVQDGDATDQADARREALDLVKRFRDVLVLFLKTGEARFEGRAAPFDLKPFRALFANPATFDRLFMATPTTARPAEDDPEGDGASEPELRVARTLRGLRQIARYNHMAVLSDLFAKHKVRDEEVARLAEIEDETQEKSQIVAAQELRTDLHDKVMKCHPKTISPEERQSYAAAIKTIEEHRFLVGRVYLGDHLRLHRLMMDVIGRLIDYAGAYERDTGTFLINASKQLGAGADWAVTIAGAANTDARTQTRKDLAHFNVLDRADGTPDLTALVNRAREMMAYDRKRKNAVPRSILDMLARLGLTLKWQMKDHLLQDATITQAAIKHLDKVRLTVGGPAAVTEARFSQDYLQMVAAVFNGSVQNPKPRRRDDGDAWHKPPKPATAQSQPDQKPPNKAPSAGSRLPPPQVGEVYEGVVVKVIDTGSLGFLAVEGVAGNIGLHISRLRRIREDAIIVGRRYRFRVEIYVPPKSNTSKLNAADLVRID
Assay: X-ray crystal structure (2.1 A); binary complex, no target RNA; Complex co-purified by Ni affinity and SEC: 50 mM Hepes pH 8.0, 500 mM NaCl, 10% glycerol, 1 mM DTT, 4-8 C; crystallization conditions not in material
Settings: protein: recombinant; tags: C-terminal His6, not removed for the crRNA complex; hairpin

B1: crRNA for crystallization (structured_RNA)
RNA: GCCUCACAUCACCGCCAAGACGACGGCGGACUGAACCUUCAUUACCUCUGUUUG
Does B1 bind?
Result: binds
